Results published in patent US20130280807A1, “CELL CULTURE CHAMBER, METHOD FOR PRODUCING SAME, TISSUE MODEL USING CELL CULTURE CHAMBER, AND METHOD FOR PRODUCING SAME” (priority 2010, published 2013).

Test system: PC-12 cells
Assay: Neurite extension of PC-12 cells by the effect of NGF through membrane
Type: cell-based
Conditions: 2 days
Description: The vitrigel chamber was hung and held in the container (FIGS. 5, (A) and (B)), and PC-12 cells suspended in a culture medium [Dulbecco's modified Eagle's culture medium (GIBCO BRL #11885-084) containing 10% inactivated fetal bovine serum (Sigma #F2442), 20 mM HEPES (GIBCO BRL #15630), 100 units/ml penicillin, and 100 μg/ml streptomycin] were seeded in 2.5×10^3 cells/cm^2 in the vitrigel chamber. A culture medium (1.2 ml), either containing NGF (upstate #01-125; 5 ng/ml) or by itself, was also injected into the container (FIG. 13).
The same experiment was conducted with the commercially available collagen membrane chamber (Koken; permeable collagen membrane #CM-24 for cell culture).

B1: NGF: NGF (upstate #01-125; 5 ng/ml) added to culture medium, acting on PC-12 cells (protein, UniProt P01139 122-241, looked up)
Beta-nerve growth factor: SSTHPVFHMGEFSVCDSVSVWVGDKTTATDIKGKEVTVLAEVNINNSVFRQYFFETKCRASNPVESGCRGIDSKHWNSYCTTTHTFVKALTTDEKQAAWRFIRIDTACVCVLSRKATRRG
modifications: Beta-nerve growth factor
notes: NGF (upstate #01-125; 5 ng/ml) added to culture medium, acting on PC-12 cells
- neurite extension of PC-12 cells (cell morphology, phase-contrast microscope) (commercially available collagen membrane chamber (Koken #CM-24), NGF in container): neurite extension was not confirmed
- neurite extension of PC-12 cells (cell morphology, phase-contrast microscope) (vitrigel chamber, NGF 5 ng/ml in culture medium in container, acting through vitrigel membrane): neurite extension was confirmed
